Assay results as given in the DeepSol protein solubility set.

Test: soluble on expression in E. coli; label from the status in PepcDB or PDB records

Row | Sequence | soluble on expression in E. coli
1 | GSMPAIMTMLADHAARQLLDFSQKLDINLLDNVVNCLYHGEGAQQRMAQEVLTHLKEHPDAWTRVDTILEFSQNMNTKYYGLQILENVIKTRWKILPRNQCEGIKKYVVGLIIKTSSDPTCVEKEKVYIGKLNMILVQILKQEWPKHWPTFISDIVGASRTSESLCQNNMVILKLLSEEVFDFSSGQITQVKAKHLKDSMCNEFSQIFQLCQFVMENSQNAPLVHATLETLLRFLNWIPLGYIFETKLISTLIYKFLNVPMFRNVSLKCLTEIAGVSVSQYEEQFETLFTLTMMQLKQMLPLNTNIRLAYSNGKDDEQNFIQNLSLFLCTFLKEHGQLLEKRLNLREALMEALHYMLLVSEVEETEIFKICLEYWNHLAAELYRESPFSTSASPLLSGSQHFDIPPRRQLYLTVLSKVRLLMVSRMAKPEEVLVVENDQGEVVREFMKDTDSINLYKNMRETLVYLTHLDYVDTEIIMTKKLQNQVNGTEWSWKNLNTLCWAIGSISGAMHEEDEKRFLVTVIKDLLGLCEQKRGKDNKAIIASNIMYIVGQYPRFLRAHWKFLKTVVNKLFEFMHETHDGVQDMACDTFIKIAQKCRRHFVQVQVGEVMPFIDEILNNINTIICDLQPQQVHTFYEAVGYMIGAQTDQTVQEHLIEKYMLLPNQVWDSIIQQATKNVDILKDPETVKQLGSILKTNVRACKAVGHPFVIQLGRIYLDMLNVYKCLSENISAAIQANGEMVTKQPLIRSMRTVKRETLKLISGWVSRSNDPQMVAENFVPPLLDAVLIDYQRNVPAAREPEVLSTMAIIVNKLGGHITAEIPQIFDAVFECTLNMINKDFEEYPEHRTNFFLLLQAVNSHCFPAFLAIPPAQFKLVLDSIIWAFKHTMRNVADTGLQILFTLLQNVAQEEAAAQSFYQTYFCDILQHIFSVVTDTSHTAGLTMHASILAYMFNLVEEGKISTPLNPGNPVNNQMFIQDYVANLLKSAFPHLQDAQVKLFVTGLFSLNQDIPAFKEHLRDFLVQIKEFAGEDTSDLFLEERETALRQAQEEKHKLQMSVPGILNPHEIPEEMCD | soluble
2 | MCSSETIVKLNVGGSVFETWKSTLTKQDGFFKTLVETNIPVKKDTSDCYFIDRSPKYFETVLNYMRSGVTVLPDSEKELQELKKEAEFYLLEQLVDLCEPINNQIRTYRSSHELLQIIASTKKPVVVINYITHNNDIIYIPEGFRFDEFVKKNSSVVEIYFQPMDNREPLPKDLRRHRGMKYYPEPVWSYRIYNSTHSGCVDLTAMDDLQKKIDSILNGE | not soluble
3 | MAHHHHHHMLTNLRFLELQKLLLKRFQIFKNEEITILKKDSMKTILNEWAEFLTKEQKGTNITHIPDEVLQNKKVADILRDDIECRWLVGRINVGNNQESPVGTNDVNSSCSAALARKGTALSKIDQLHFDEYPNLFHYEYPQFPYNYYDKKKMENFYSLLKFPYNDILKISKMIKRDVISPSGNAEEGEILQQGGKAQSEVLESTHVDVVNDDFMNYSSNSYVYAPSEMETSKENYHE | not soluble
4 | MITPSRYPGIYIAPLSSEPTAAHTFKEQAEKALDHISAGPSGRELLQEISKLASKKDRKVTLKEIEINNQCYTDAVLSRRQLEKYEPEDFNENRRIASRLSRKGTFTKGEGSNAIIGWSPDKASIRLNQNGSPLRLGMDNDDKITTLAHELVHVRHVLSGSSLADDGDRYNPRTGSGKEELRAVGLDKYSYSLTKEPSENSIRAEHGLPLRMKYRPHQ | not soluble
5 | MSTNIFLHLPTTISTERTILRKTSFADATTLFDIWSDNDVAQFMNIEKFSTILQAEEMIQAIENEPNACRYTIFTMDNSLKAIGSLGINDINKNNQTIEIGYELAKSHWRQGLMFEILTTFLNTTKAHLPYKTITAKVLPENIASIKLLTKLGFELISTGQELDLHSGKICEISNYQLILN | not soluble
6 | MGSDKIHHHHHHQPGATGGTWTCCPVSWRAFQSNCYFPLNDNQTWHESERNCSGMSSHLVTINTEAEQNFVTQLLDKRFSYFLGLADENVEGQWQWVDKTPFNPHTVFWEKGESNDFMEEDCVVLVHVHEKWVWNDFPCHFEVRRICKLPGITFNWKPSK | not soluble
7 | MSRTQFEPAETYTAYTAYDEAYEAHEAYEAHEAYEAHETYERPAPYDLHSAPTLPYGGTYPSAPPPVHEPTVPALPRQSDGRAERRRRARGAGRADASLRRLVPRALVVAFLAGGTTAFVAKDKAVELTVDGSPRTLHTFADDVSELLAEEGVQVGAHDVIAPAPGTPLTSGEDVTVHHGRPVLLTLDGHRRQVWTTAGTVAGALRQLGVRTQGAYLSTGPSRRIGREGLALVVRTERVVTVMADGRTRTVRTNAATVGEVVEEAGITLRGEDTTSVPATGFPRDGQTVTVLRITGSQEVREDPIPFDERRAEDASLFRGTEVVQEAGRPGLRRTTYALRTVNGVRQKPRRLRTEVVREPSPRIVRVGTRPRPASVHGADHLNWQGLAACESGGRADAVDPSGTYGGLYQFDSATWHGLGGEGRPEDASAAEQTYRAQKLYVRSGADAWPHCGARLRELEHHHHHH | not soluble
8 | MMKEMTVQQMTEKVLNKESLFILDVRNESDFRDWKIEGENFAYLNVPYFELVHGVDSIVDRLPKDQDIVVVCAKGGSAAFVAEQLAEAGFDNVYTLAGGMQAWSEHLHQAKVYEDDQLKIYQFIRVGKGCLSYMVLSGDEALVVDPLRFIDVYEQVAQQEGVTITHIVDSHLHADHLSGGKALAERTGAAYYLMKSEGAVFDFEPLEQHETIDFENVHLEVLAVKTPGHTPGSVSFFVNGKWLFSGDTIFVGGLGRPDLGGKVAEWAEDLYHTVYEKVAAMADDVIVLPAHYANLDEEINAEGYVGDTLGRIRARNEMMQNKAKDEFIDLVIQGAKTETPPNFEDIVAINRGLKTVDIETQRELEIGPLEHHHHHH | soluble
9 | MGSDKIHHHHHHMTIVSAFLLPGSPLPQLRPDITPWGRIREGLSRAGKALAESKPDCVLVYSTQWFAVLDQLWITRARSTGVHVDENWHEFGEQAFDIHSDCALAQRCVDACNAAGIKTRGVDYDQFPIDTGTITATTLMGFGSASLPVVIAANNLYHSAEQTEQLGAIASAALQDKRAAVLGIGGLSNSAFRENIDLEKDHILSEADDKWNQRVLALMESGDIEAIRAILPQYSTEARPDMGLKHFYWLLGAMNASFKKATVHEYAPLYGSGGAIVQFDVQ | not soluble
10 | MDKMVSYLFKGEVKNPYVFLVLGKDKEIEHTVRTDVIVVGVLDWKKGNLSFVSIPRDLMIEGKKINAIYNTYGMEKLFQIIESLLGQKPDSYVIFNYEAFKILVDELGPIEVIPNEVMFYEDLSQNLVIDFKPGVPYKLNGEQLLAYIRYRKDSMGDLARIERQKDVLKKLLSKALSRNPLEISVLYKKISPYIETDIGLPEILTLFSKLKNSVRVSFSTLPYNVDSDGSIFVDEKRLVSFKENLIGSSVQEKYRVNFLVVNTSSLVSRVFEANLRGVWKDRVGFEPDRVVWEDVGISQKFEGDHVFIGEPEKEDYILEILRKAHPSRHFTVHRFDRPEDYTMYYTILESLAKNRIYPDFPVSALILIDDFRELEHHHHHH | soluble
11 | MAHHHHHHMAVNARHDLLYECLGLVYELYGGLAEDLQELHDDPLHPHFHRRIARIKRDRERIATELDKRYAKLHPTVKTVYDAFLVRRYYHLADWIEHVERKRERLINDLSPDVMEKTMRMRGIAEQYLRHLRALEHALYEDPLMGLLGGDRGTNVLDQYTPGELAMLRQKAAYFRNMRRFGANQLDADMHTH | not soluble
12 | MGSDKIHHHHHHMVAKKKILFFMWSFSLGGGAEKILSTIVSNLDPEKYDIDILEMEHFDKGYESVPKHVRILKSLQDYRQTRWLRAFLWRMRIYFPRLTRRLLVKDDYDVEVSFTIMNPPLLFSKRREVKKISWIHGSIEELLKDSSKRESHRSQLDAANTIVGISKKTSNSIKEVYPDYTSKLQTIYNGYDFQTILEKSQEKIDIEIAPQSICTIGRIEENKGSDRVVEVIRLLHQEGKNYHLYFIGAGDMEEELKKRVKEYGIEDYVHFLGYQKNPYQYLSQTKVLLSMSKQEGFPGVYVEALSLGLPFISTDVGGAEELSQEGRFGQIIESNQEAAQAITNYMTSASNFDVDEASQFIQQFTITKQIEQVEKLLEE | not soluble
13 | MAHHHHHHMSPYEYLFKYIIIGDTGVGKSCLLLQFTDKRFRADHDLTIGVEFGARLINLDNKQIKLQIWDTAGQESFRSITRSYYRGAAGALLVYDITRRETFNHLNRWLDEVRQNSNPHMAIILVGNKCDLERREVSAEEGAQFARQNGLIFLETSAKTAKNVEEAFLYTARKIYDNILEDVYDLSNESYGIKYGPNSQYSRVKLDIPSMPESRSGFSCC | soluble
14 | MGSDKIHHHHHHMLGASQPYDLGPGIRRGSRGKGGAMTQIPNHDPLSDWGLPGWIYTSERFFKEEQDKVFRPSWQIVCHLNDIPKAGDFHTFDFIGESLVVVRSKDGGVRAFANVCRHRGARLLDGPVGRCGGRIVCPYHAWTYDLEGRLIGVPMRDDYPALDMAKEGLATIEVEVWRGFVFVRLEGDGPSVATMMAPYEDEVAHYRFEELQPFGRVTLRPRAVNWKNISDNYSDGLHIPVAHPGLTRLFGKGYGVEAEAYVDKMWGQLIDEPSESPSERLYQDILPDVAHLPGDRKRLWTYFKLWPNFAFDIYPDQVDFMQFIPISAEQTMIREIAYALPDDRREMKAARYLNWRINRQVNTEDTELVARVQQGMASRTFTAGPLATSEVSLRSFGRKMRALIPESRMPRPPEGW | not soluble
15 | MAHHHHHHMSEKKEYINPAGLRLDGRRPQESRRMTLEFGKVLGCDGCCTVMSGLATVCASVYGPREVTNRLESKYNECIITCEVAIAAFAGEKRRAPQRRSKLSEEMSAAVLEVARSVVLLSQYPNSQIHICVEVLRQDGSDKAACINAACLALVDACVAMRDIVYAQTVGLIHAVDVVDLTTEEMRSQCPTICIAVKGHDPSSIVWMESNCRVTSEVVSRLVTVAQKSSEGVFAAALRGPLEEHAAAILKLQGNLGNGD | not soluble
16 | MLKIGVITMALLSFLNAGWLGNLFDSTPTPYYKMPIDLSKAGNVTETDIRIDEKYSVYVELYYDYRKQKISGDRYGEIIDKYFGRHKLFPIFPIKLTVLKYEKTGTTMVVDKIYYTNSLGRTYSSREIDEFKLQEGSKYHIKVETVEDYPELAELNVEVVIGYIKAK | not soluble
17 | SSYNILSQDLLEDNSHLYRHCRRPVLHWSFRFPNILKEIKHFDADVLCLQEVQEDHYGAEIRPSLESLGYHCEYKMRTGRKPDGCAICFKHSKFSLLSVNPVEFFRPDISLLDRDNVGLVLLLQPKIPYAACPAICVANTHLLYNPRRGDIKLTQLAMLLAEISSVAHQKDGSFCPIVMCGDFNSVPGSPLYSFIKEGKLNYEGLPIGKVSGQEQSSRGQRILSIPIWPPNLGISQNCVYEVQQVPKVEKTDSDLTQTQLKQTEVLVTAEKLSSNLQHHFSLSSVY | soluble
18 | MSLSDKDKRRLEYKELAKESKAKSKMLAASQGKGLVAKIAIGSALGNIIGNAMSKAAGGLLGFAKKAVEEKSKTNRAKLLNSAFFEKDERNTIMGTLKGMKGFERDLEKEEFLNQASVFKGTLRDLGMLNLTNLKKAVEFSAALKSSGAMSGEDAVKAVNSLLSGEGDELFDLLKKSGVGDKYIEDAKKAWQSGAEVDLESRITMLVEMFKDFKSFGITKKADTKEEIDSNLASAEQTLSNLTTTVLDPLLKFIKMVTGLSEGHHHHHH | soluble
19 | MGSDKIHHHHHHMIQHKPDLIFLDINLPDINGIDFAEQVQSILPEVHIVFITAYDEYAVKAFELNAIDYVMKPVQRDRLNRTINRITDRKTVEPLRSQTDSKIISCFQTLHFQKGSEIGKAEPIDVNWRTAKARELFAYLVQHRKQPVRKDVLLEFFWPESDVKKGYAQLYSAIYQIRKMLDSLQMNSTVVSFDKSYKLHLNGTKLDVEEWERELRQLPNITEDTLPSYRRLLETYKGDYLAEEAYLWAENERERLRTLYHSTFNKVTTYYLECGYYTDAITLCQRVQTLHPLMETSYFLLMQVYAKMGDNHSVKSQYEKLNHVLEAEYGIHTSDSIENWYNEWKKQLQ | not soluble
